From the supplement of paper PMC7125110
± gives the standard error. Fewer inactive variants are shown than the library holds.

B1: glmS ribozyme (parent)
chain: AUAAAAGCGCCAGAACUACAGAAAUGUAGUUGACGAGGAGGAGGUUUAUCGAAUUUUCGGCGGAUGCCUCCAAA

Assays:
Conditions in all cases: with glucosamine-6-phosphate
glucosamine-6-phosphate [1] = variants of: B1; assay: self-cleavage kobs at 40 uM GlcN6P; higher = faster cleavage; RNA array
Procedure, shortened: (§1)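 Glucosamine-6-phosphate in HEPES/KCl/Mg(OAc)2 buffer, at 40 μM to 10 mM, was flowed over barcoded ribozyme variants transcribed in situ by E. coli RNA polymerase on sequenced MiSeq chips. Tracking was through a hybridised Cy3 probe at 37 °C. kobs, kcat and KM came from exponential decay fits and weighted Michaelis–Menten fits of normalised per-tile medians.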

glucosamine-6-phosphate [2] = variants of: B1; assay: self-cleavage kobs at 160 uM GlcN6P; higher = faster cleavage; RNA array
Procedure, shortened: as §1

glucosamine-6-phosphate [3] = variants of: B1; assay: self-cleavage kobs at 2500 uM GlcN6P; higher = faster cleavage; RNA array
Procedure, shortened: as §1

glucosamine-6-phosphate [4] = variants of: B1; assay: self-cleavage kobs at 10000 uM GlcN6P; higher = faster cleavage; RNA array
Procedure, shortened: as §1

glucosamine-6-phosphate [5] = variants of: B1; assay: self-cleavage kobs at 640 uM GlcN6P; higher = faster cleavage; RNA array
Procedure, shortened: as §1

| Variant | self-cleavage kobs at 40 uM GlcN6P (glucosamine-6-phosphate [1]) [s⁻¹] | self-cleavage kobs at 160 uM GlcN6P (glucosamine-6-phosphate [2]) [s⁻¹] | self-cleavage kobs at 2500 uM GlcN6P (glucosamine-6-phosphate [3]) [s⁻¹] | self-cleavage kobs at 10000 uM GlcN6P (glucosamine-6-phosphate [4]) [s⁻¹] | self-cleavage kobs at 640 uM GlcN6P (glucosamine-6-phosphate [5]) [s⁻¹] |
| --- | --- | --- | --- | --- | --- |
| G13C A48C | < 1e-05 | < 1e-05 | < 1e-05 | < 1e-05 | – |
| A14U U49A | < 1e-05 | < 1e-05 | – | – | < 1e-05 |
| G40U U56C G59C | < 1e-05 | – | – | < 1e-05 | – |
| A42C G44A | < 1e-05 | < 1e-05 | – | < 1e-05 | < 1e-05 |
| G7U A36C G59U | < 1e-05 | – | – | < 1e-05 | – |
| A33G A52C U55G | < 1e-05 | – | – | – | – |
| C16U C50G G59A C68A | 4.62e-05 ± 2.3e-05 | – | – | 4.07e-05 ± 1.3e-05 | – |
| C8A A15U A36G | < 1e-05 | – | – | – | – |
| A12G G13C G32U G40A A64C | < 1e-05 | – | – | – | – |
| C10U U31A A53C U55G | < 1e-05 | – | – | – | – |
| A6C G37U G44U | < 1e-05 | – | – | – | – |
| G35U G38A | < 1e-05 | < 1e-05 | – | < 1e-05 | – |
| U65G C71A | 4.51e-05 ± 1.7e-05 | 6.43e-05 ± 2e-05 | 0.000938 ± 0.00015 | 0.00276 ± 0.00056 | 0.000497 ± 5.7e-05 |
| G7C A48U | < 1e-05 | < 1e-05 | < 1e-05 | < 1e-05 | – |
| G7A A52G | < 1e-05 | – | – | < 1e-05 | < 1e-05 |
| A15C A33C C50G C61G | 0.000147 ± 3.9e-05 | – | – | 0.000196 ± 3.4e-05 | – |
| A14U U54A G59C | < 1e-05 | – | – | < 1e-05 | – |
| G9A A14G | < 1e-05 | < 1e-05 | – | 5.01e-05 ± 1.3e-05 | – |
| A6U A14U G35C A39U U55A C58A | < 1e-05 | – | < 1e-05 | < 1e-05 | – |
| A15U G62A | < 1e-05 | < 1e-05 | < 1e-05 | < 1e-05 | – |
| U49A A52G | < 1e-05 | – | – | – | – |
| A6U C34G | < 1e-05 | < 1e-05 | < 1e-05 | < 1e-05 | – |
| G7U C16U G29C U54A | < 1e-05 | – | < 1e-05 | – | – |
| C10G G29A G37A G38U G41C C71U | < 1e-05 | – | – | < 1e-05 | – |
| U31C G38C A39C | < 1e-05 | – | < 1e-05 | – | – |
| U31C U56G | 0.000154 ± 1.9e-05 | 0.000413 ± 9.2e-05 | 0.00194 ± 0.0003 | 0.00757 ± 0.00091 | 0.000899 ± 0.00013 |
